Laboratory results as given in article PMC6069116.

Molecular target: HrpG/HrpV complex from Erwinia amylovora, separately produced (Erwinia amylovora)
Assay: SEC-MALS

HrpJ from Erwinia amylovora, separately produced and purified (natural protein)
stoichiometry N (HrpG:HrpV:HrpJ): 1
